Test results taken from the supplement of paper PMC9170038.

Test system: K4 kissing-loop RNA reporter
Experiment: apparent KD of K4 kissing-loop reporter; higher = weaker reporter binding
Settings: Eterna round: R107
Protocol: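 RNA-MaP round R107: designed RNA switches with theophylline, tryptophan, arginine or FMN aptamers are transcribed on-chip within common flanks. They are titrated with a labelled K4 kissing-loop RNA reporter in RNA-MaP buffer (100 mM Tris pH 7.5, 80 mM KCl, 4 mM MgCl2), without ligand or with the indicated ligand. Median apparent KD per design.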

[1] = input ligand: theophylline 20 uM
[2] = input ligand: tryptophan 2.4 mM
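Also: bound reporter read as fluorescence of individual clusters on recovered sequencing chips by microscopy, with normalized cluster intensities fitted with a binding model.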

GGAUAGGAAAGAGGAUAUGGGCUAGGCAAGAAUAACUUGUCUAGCAAAUCCAUGAGGAGUGAUGUUCCAGAAGGCUUUCCUAUCG [FmnBX 1 A9+U77]
apparent KD of K4 kissing-loop reporter (input ligand: FMN 200 uM): 995 nM | apparent KD of K4 kissing-loop reporter (input ligand: arginine 13.2 mM): 141 nM | apparent KD of K4 kissing-loop reporter (input ligand: none): 160 nM | apparent KD of K4 kissing-loop reporter [1]: 157 nM | apparent KD of K4 kissing-loop reporter [2]: 126 nM

GGAUAGGACAGAGGAUAUCCUUGAGGCAAGAAACUUGUCUCUAAAAGGAUGAACCUAGUGAUGUUAGGAGAAGGCUGUCCUAUCG [FmnBX 13 - #SwitchBubble #StaticStem #Palindromic]
apparent KD of K4 kissing-loop reporter (input ligand: FMN 200 uM): 132 nM | apparent KD of K4 kissing-loop reporter (input ligand: arginine 13.2 mM): 90 nM | apparent KD of K4 kissing-loop reporter (input ligand: none): 98.2 nM | apparent KD of K4 kissing-loop reporter [1]: 85 nM | apparent KD of K4 kissing-loop reporter [2]: 95.9 nM

GGAUAGGACAGAGGAUAUCCUUGAGGCAAGAAACUUGUCUCUAAAGGAUGAAUCCUAGUGAUGUUAGGAGAAGGCUGUCCUAUCG [FmnBX 14 - #SwitchBubble #StaticStem #Palindromic]
apparent KD of K4 kissing-loop reporter (input ligand: FMN 200 uM): 103 nM | apparent KD of K4 kissing-loop reporter (input ligand: arginine 13.2 mM): 82.2 nM | apparent KD of K4 kissing-loop reporter (input ligand: none): 85 nM | apparent KD of K4 kissing-loop reporter [1]: 77.2 nM | apparent KD of K4 kissing-loop reporter [2]: 87.1 nM

GGAUAGGACAGAGGAUAUGGACAGUCUACAAAGUAGGCUGAAAAUCCUUGAAUGGAAGUGAUGUUUCUAGAAGGCUGUCCUAUCG [FmnBX 19 - #SwitchBubble #StaticStem #Palindromic]
apparent KD of K4 kissing-loop reporter (input ligand: FMN 200 uM): 800 nM | apparent KD of K4 kissing-loop reporter (input ligand: arginine 13.2 mM): 160 nM | apparent KD of K4 kissing-loop reporter (input ligand: none): 190 nM | apparent KD of K4 kissing-loop reporter [1]: 174 nM | apparent KD of K4 kissing-loop reporter [2]: 180 nM

GGAUAGGACAGAGGAUAUGGUAGUGAUGUUACCAAACUGGUUACUUUUGUCAGAAAACUGGCAUUUCCAGAAGGCUGUCCUAUCG [KL-XFMN-B12]
apparent KD of K4 kissing-loop reporter (input ligand: FMN 200 uM): 287 nM | apparent KD of K4 kissing-loop reporter (input ligand: arginine 13.2 mM): 71 nM | apparent KD of K4 kissing-loop reporter (input ligand: none): 68.6 nM | apparent KD of K4 kissing-loop reporter [1]: 58 nM | apparent KD of K4 kissing-loop reporter [2]: 68.3 nM

GGAUAGGACAUAGGAUAUGGGCUAGGCAAGAAUAACUUGUCUAGCAAAUCCAUGAGGAGUGAUGUUCCAGAAGGAUGUCCUAUCG [FmnBX 1 U11+A75]
apparent KD of K4 kissing-loop reporter (input ligand: FMN 200 uM): 566 nM | apparent KD of K4 kissing-loop reporter (input ligand: arginine 13.2 mM): 108 nM | apparent KD of K4 kissing-loop reporter (input ligand: none): 112 nM | apparent KD of K4 kissing-loop reporter [1]: 123 nM | apparent KD of K4 kissing-loop reporter [2]: 84.5 nM

GGAUAGGACGGAGGAUAUGGUAGUGAUGUUACCAAACUGGUUAAACAUGUCAGAAAACUGGCAUGACCAGAAGGCCGUCCUAUCG [FmnBX 27 G10+C76]
apparent KD of K4 kissing-loop reporter (input ligand: FMN 200 uM): 108 nM | apparent KD of K4 kissing-loop reporter (input ligand: arginine 13.2 mM): 62.6 nM | apparent KD of K4 kissing-loop reporter (input ligand: none): 69.6 nM | apparent KD of K4 kissing-loop reporter [1]: 61.6 nM | apparent KD of K4 kissing-loop reporter [2]: 67.4 nM

GGAUAGGAUAGAGGAUAUGGUUUAGGCAAGAAUAACUUGUCAUGUAAAUCCAUGAGGAGUGAUGUUCCAGAAGGCUGUCCUAUCG [MatMod 8 - Jieux - Exclusion - FMN B]
apparent KD of K4 kissing-loop reporter (input ligand: FMN 200 uM): 576 nM | apparent KD of K4 kissing-loop reporter (input ligand: arginine 13.2 mM): 123 nM | apparent KD of K4 kissing-loop reporter (input ligand: none): 121 nM | apparent KD of K4 kissing-loop reporter [1]: 142 nM | apparent KD of K4 kissing-loop reporter [2]: 91.8 nM

GGAUAGGAUAGAGGAUAUGGUUUAUGCAGGAAUAACUUAUCGUGUAAAUCCAUAGGGAGUGAUGUUCCAGAAGGCUGUCCUAUCG [MatMod 13 - Jieux - Exclusion - FMN B]
apparent KD of K4 kissing-loop reporter (input ligand: FMN 200 uM): 408 nM | apparent KD of K4 kissing-loop reporter (input ligand: arginine 13.2 mM): 202 nM | apparent KD of K4 kissing-loop reporter (input ligand: none): 228 nM | apparent KD of K4 kissing-loop reporter [1]: 250 nM | apparent KD of K4 kissing-loop reporter [2]: 170 nM

GGAUCCACCAGUGAUGUUGGAGAAAACUCCAAGGAUAUGACGAAAGUCAGAAGGUGGUAGACUGGACAAAGUCCGGUGGGAUCCA [FmnA10 G78]
apparent KD of K4 kissing-loop reporter (input ligand: FMN 200 uM): 661 nM | apparent KD of K4 kissing-loop reporter (input ligand: arginine 13.2 mM): 141 nM | apparent KD of K4 kissing-loop reporter (input ligand: none): 392 nM | apparent KD of K4 kissing-loop reporter [1]: 438 nM | apparent KD of K4 kissing-loop reporter [2]: 88.7 nM

GGAUGGUAGGCGGCCGCCACUAAAACAGAACACAUACAAGCCAGUGAUGUUGGUAUGAUGGUGUAUAGGACCGGGCCUAGAUAGA [Exclusion - Tryptophan B (Freestyle 5)]
apparent KD of K4 kissing-loop reporter (input ligand: FMN 200 uM): 197 nM | apparent KD of K4 kissing-loop reporter (input ligand: arginine 13.2 mM): 178 nM | apparent KD of K4 kissing-loop reporter (input ligand: none): 199 nM | apparent KD of K4 kissing-loop reporter [1]: 186 nM | apparent KD of K4 kissing-loop reporter [2]: 196 nM

GGAUGGUAGGCGGCCGCCACUAAAACUGAACACAUACAAGCCAGUGAUGUUGGUAUGAUGAAGUAUAGGACCGGGCCUAGAUAGA [Exclusion - Tryptophan B (Freestyle 3)]
apparent KD of K4 kissing-loop reporter (input ligand: FMN 200 uM): 446 nM | apparent KD of K4 kissing-loop reporter (input ligand: arginine 13.2 mM): 384 nM | apparent KD of K4 kissing-loop reporter (input ligand: none): 422 nM | apparent KD of K4 kissing-loop reporter [1]: 502 nM | apparent KD of K4 kissing-loop reporter [2]: 469 nM

GGAUUUGAAAGUGAGUGAUGUUCAUGUUGUGAGGAUAUGUAGAGAUAUAGAAGGCACGUUUGUAUUUUUUUUGUGUGAGAUUAAA [Last Minute #1]
apparent KD of K4 kissing-loop reporter (input ligand: FMN 200 uM): 81.5 nM | apparent KD of K4 kissing-loop reporter (input ligand: arginine 13.2 mM): 64.9 nM | apparent KD of K4 kissing-loop reporter (input ligand: none): 65.1 nM | apparent KD of K4 kissing-loop reporter [1]: 75.2 nM | apparent KD of K4 kissing-loop reporter [2]: 65.5 nM

GGCACGGUGGCGCGACUGCCGUGCGCUUGGGAGGAUAUGUUUCGUGACAGAAGGCCCAGUGAUGUUGGGUCUGUUCAAAAGGACU [Gegearer]
apparent KD of K4 kissing-loop reporter (input ligand: FMN 200 uM): 359 nM | apparent KD of K4 kissing-loop reporter (input ligand: arginine 13.2 mM): 125 nM | apparent KD of K4 kissing-loop reporter (input ligand: none): 127 nM | apparent KD of K4 kissing-loop reporter [1]: 130 nM | apparent KD of K4 kissing-loop reporter [2]: 112 nM

GGCAUAUGGGCAGGAUAUAGGCAGGUAGAGUGAUGUUCUUUCUGAAUAAUUCCAUCCUUCUACCUACUAGAAGGGCCCAUAUGCC
apparent KD of K4 kissing-loop reporter (input ligand: FMN 200 uM): 56.5 nM | apparent KD of K4 kissing-loop reporter (input ligand: arginine 13.2 mM): 106 nM | apparent KD of K4 kissing-loop reporter (input ligand: none): 68.7 nM | apparent KD of K4 kissing-loop reporter [1]: 110 nM | apparent KD of K4 kissing-loop reporter [2]: 67.9 nM

GGCAUCCAUGGACAUAGUGAUGUUAUGUACCGAGGACCGGUACGGCCGCCACUCGGCCAUGGAUGCCGCAAUCGGAAACGAUUGC
apparent KD of K4 kissing-loop reporter (input ligand: FMN 200 uM): 868 nM | apparent KD of K4 kissing-loop reporter (input ligand: arginine 13.2 mM): 558 nM | apparent KD of K4 kissing-loop reporter (input ligand: none): 885 nM | apparent KD of K4 kissing-loop reporter [1]: 667 nM | apparent KD of K4 kissing-loop reporter [2]: 290 nM

GGCCCGGGCUCGGCCGCCACUCCCUCGUACCGCAAGGUAUGAUACCGAGUGAUGUUCGGUUGGAGGAGGACCGGGAGCCCGGGCC [#2 Exclusion - Tryptophan B Attempt #6 (HarryS)]
apparent KD of K4 kissing-loop reporter (input ligand: FMN 200 uM): 116 nM | apparent KD of K4 kissing-loop reporter (input ligand: arginine 13.2 mM): 118 nM | apparent KD of K4 kissing-loop reporter (input ligand: none): 106 nM | apparent KD of K4 kissing-loop reporter [1]: 101 nM | apparent KD of K4 kissing-loop reporter [2]: 102 nM
